According to US6699656B2, “Treatment and prevention of HIV infection by administration of derivatives of human chorionic gonadotropin” (University of Maryland Biotechnology Institute, priority 1996, dated 2004):

B1: partially purified native β-hCG (NβhCG): partially purified native β-hCG dissociated from hCG, Sigma (protein, UniProt P0DN86 21-165, looked up)
Choriogonadotropin subunit …: SKEPLRPRCRPINATLAVEKEGCPVCITVNTTICAGYCPTMTRVLQGVLPALPQVVCNYRDVRFESIRLPGCPRGVNPVVSYAVALSCQCALCRRSTTDCGGPKDHPLTCDDPRFQDSSSSKAPPPSLPSPSRLPGPSDTPILPQ
B2: recombinant β-hCG: purified recombinant β-chain of hCG (protein, UniProt P0DN86 21-165, looked up)
Choriogonadotropin subunit …: B1 Choriogonadotropin subunit …
B3: β-hCG: β-subunit of hCG as reported in the literature (protein, UniProt P0DN86 21-165, looked up)
Choriogonadotropin subunit …: B1 Choriogonadotropin subunit …

Tests used:
[1] = system: hematopoietic progenitor cells; assay: Hematopoietic progenitor colony assays (CFU-MIX, BFU-e, CFU-GM); format: cell-based; details: bone marrow and cord blood; hCG 200 IU/ml, peptides and subunits 100 μg/ml; 10 days
From the text: Hematopoietic progenitor cells (2×10^5 cell/ml) were isolated from normal bone marrow and cord blood and seeded in methylcellulose. […] Aggregates containing more than 50 cells after 10 days of culture were counted as colonies.

HIV-1 [2] = details: p24 antigen days 3 to 10; peptides 0.05 to 50 nmoles/ml, hCG 0.01 to 1,000 IU, native β-hCG 100 to 1,000 μg
Method: Sequences of the peptides are as follows:
HIV-1 infected cells were treated with the above preparations and the virus was measured.

KS Y-1 or KS-SLK cells = assay: KS clonogenic assay; format: cell-based, human; details: 2 KS cell lines; peptides 50 nmoles/ml, CR127 2 nmoles/ml; 10 days
Method: Briefly, the KS Y-1 cells were obtained from mononuclear cells isolated from pleural effusion of an AIDS patient with KS involving the lungs. After the depletion of T lymphocytes, monocytes/macrophages and fibroblasts by the cytotoxicity method, using monoclonal antibodies against CD2, CD3, CD4, CD8, CD10 and CD14 membrane antigens and baby rabbit complement, the cells were cultured in the absence of exogenous growth factors to select for transformed cells.

HIV-1 [3] = details: higher doses increased viral production; cited from earlier work
Kaposi's Sarcoma = details: literature; cited from earlier work

| Molecule | growth of hematopoietic progenitors (colonies) [1] | inhibition of HIV-1 infection/replication in acutely infected cells (HIV-1 [2]) | anti-KS effect in clonogenic assays (number of colonies) (KS Y-1 or KS-SLK cells) | doses reducing HIV production in monocytes (HIV-1 [3]) | efficacy in the treatment of Kaposi's Sarcoma (Kaposi's Sarcoma) |
| --- | --- | --- | --- | --- | --- |
| B1 | directly promoted | active |  |  |  |
| B2 |  | not to be active | no anti-KS effect |  |  |
| B3 |  |  |  | ≤ 10 µg/mL | efficacious |
